These results are taken from PMC3553496.

Holding throughout (assay): peptide or protein array
Test [1] has as its target FH1/FH2 domain–containing protein 3 peptide (18-mer) (human).
The target of test [2] is LIM homology domain– and calponin homology domain–containing protein 1 peptide (18-mer) (human).
Test [3] deals with Leucine-rich repeat flightless-interacting protein 2 peptide (18-mer) (human).
The target of test [4] is LIM domain only protein 7 peptide (18-mer) (human).
Test [5] has as its target Myosin-14 peptide (18-mer) (human).
Test [6] concerns the target Drebrin peptide (18-mer) (human).

“GST-tagged ARHGAP10L SH3 domain (domain or fragment)”: the relative binding strength (% of the strongest interaction of this SH3 domain) stood at 53% in test [1]; 11% in test [2]; 65% in test [3]; 12% in test [4]; 100% in test [5]; 68% in test [6].
